Measured values from IntAct's records for PubMed 16732284.

B1: Carboxypeptidase Y-deficient protein 8 (Saccharomyces cerevisiae), P40335 (parent)
chain: MSIFFKPPIDIEILFDNEESRKHVDIATRSSNSSYKSMKESLPVYEDGESLGGIVTLRVRDSKKVDHLGIKVSVIGSIDMLKSHGSGNSSSKKVTSSTSSSSSNGSVDVRKNSVDQFLCQSYDLCPAGELQHSQSFPFLFRDLSKRYESYKGKNVDVAYYVKVTVMRKSTDISKIKRFWVYLYNSVTTAPNTLSANETKATTNDIAGGNYAADNASDNTQTKSTQGEAADVNQVLPISHSNNEPKPVRLDIGIENCLHIEFEYAKSQYSLKEVIVGRIYFLLTRLRIKHMELSLITRESSGLQTSNVMTDSTAIRYEIMDGSSVKGETIPIRLFLSGYDLTPNMSCNYFNVKNYLSLVIIDEDGRRYFKQSEITLYRTR

Variants of: B1
Conditions: with vps35_human VPS35, Q96QK1
For MSIFFKPPIDIEILFDNEESRKHVDIATRSSNSSYKSMKESLPVYEDGESLGGIVTLRVRDSKKVDHLGIKVSVIGSIDMLKSHGSGNSSSKKVTSSTSSSSSNGSVDVRKNSVDQFLCQSYDLCPAGELQHSQSFPFLFRDLSKRYESYKGKNVDVAYYVKVTVMRKSTDISKIKRFWVYLYNSVTTAPNTLSANETKATTNDIAGGNYAADNASDNTQTKSTQGEAADVNQVLPISHSNNEPKPVRLDIGIENCLHIEFEYAKSQYSLKEVIVGRIYFLLTRLRIKHMELSLITRESSGLQTSNVMTDSTAIRYEDDDGSSVKGETIPIRLFLSGYDLTPNMSCNYFNVKNYLSLVIIDEDGRRYFKQSEITLYRTR [I318D;M319D], the “effect of a mutation on the interaction” value was “disrupting interaction”.
